Experiments:
[1] = target: T1, filamentous actin (F-actin) from rabbit skeletal muscle (rabbit, UniProt P68135 1-377); experiment: BLI; F-actin immobilised on Streptavidin (SA) biosensors through LAbio peptide; αcat-ABD in solution at various concentrations; 26 °C, Octet384; 2 mM Tris-HCl pH 8.0, 0.2 mM ATP, 0.5 mM DTT, 0.1 mM CaCl2, 50 mM KCl, 2 mM MgCl2, 0.1% BSA, 0.02% Tween-20; 2:1 heterogeneous ligand model; details: both partners purified
[2] = target: T1, filamentous actin (F-actin) from rabbit …; experiment: co-sedimentation; actin cosedimentation at high RCF: 5 μM ABD and 5 μM actin in 50 μL Buffer-F, 1 h at RT, Airfuge ≥100,000×g 20 min at RT; supernatant and pellet by SDS-PAGE with coomassie, band intensity by ImageJ; details: both partners purified
[3] = target: T1, filamentous actin (F-actin) from rabbit …; experiment: BLI; as a2 but Super-Streptavidin (SSA) biosensors with increased streptavidin density, used for αEcat-ABD-H1; 1:1 binding model; details: both partners purified
[4] = target: the molecule itself; experiment: crystal structure; αNcat-ABD-H1 crystal forms A (P6522, 2.2 Å) and B (P212121, 2.8 Å), grown at 277 K by vapor diffusion

| KD1 (2:1 heterogeneous ligand model) [1] [µM] | KD2 (2:1 heterogeneous ligand model) [1] [µM] | koff1 (2:1 heterogeneous ligand model) [1] [s⁻¹] | koff2 (2:1 heterogeneous ligand model) [1] [s⁻¹] | kon1 (2:1 heterogeneous ligand model) [1] [M⁻¹ s⁻¹] | kon2 (2:1 heterogeneous ligand model) [1] [M⁻¹ s⁻¹] | reduction in the amount of ABD cosedimenting with F-actin compared to αEcat-ABD-WT [2] [%] | Kd [3] [nM] | koff [3] [s⁻¹] | kon [3] [M⁻¹ s⁻¹] | Binder | binding result [4] |
| --- | --- | --- | --- | --- | --- | --- | --- | --- | --- | --- | --- |
| 2 | 0.3 | 0.465 | 0.00964 | 234000 | 31900 |  |  |  |  | αE-catenin actin-binding domain, wild type (αEcat-ABD-WT; residues 652-906) (domain or fragment, source: E. coli BL21-CodonPlus, purified (glutathione-sepharose, thrombin cleavage, Superdex 75); not shown: GST, N-terminal, cleaved) SRTSVQTEDDQLIAGQSARAIMAQLPQEQKAKIAEQVASFQEEKSKLDAEVSKWDDSGNDIIVLAKQMCMIMMEMTDFTRGKGPLKNTSDVISAAKKIAEAGSRMDKLGRTIADHCPDSACKQDLLAYLQRIALYCHQLNICSKVKAEVQNLGGELVVSGVDSAMSLIQAAKNLMNAVVQTVKASYVASTKYQKSQGMASLNLPAVSWKMKAPEKKPLVKREKQDETQTKIKRASQKKHVNPVQALSEFKAMDSI |  |
| 38.4 | 6.1 | 0.799 | 0.00849 | 20800 | 1400 | 78 |  |  |  | αEcat-ABD 3A (L785A, I792A and V796A together) (domain or fragment, source: E. coli BL21-CodonPlus, purified (glutathione-sepharose, thrombin cleavage, Superdex 75); not shown: GST, N-terminal, cleaved) SRTSVQTEDDQLIAGQSARAIMAQLPQEQKAKIAEQVASFQEEKSKLDAEVSKWDDSGNDIIVLAKQMCMIMMEMTDFTRGKGPLKNTSDVISAAKKIAEAGSRMDKLGRTIADHCPDSACKQDLLAYLQRIAAYCHQLNACSKAKAEVQNLGGELVVSGVDSAMSLIQAAKNLMNAVVQTVKASYVASTKYQKSQGMASLNLPAVSWKMKAPEKKPLVKREKQDETQTKIKRASQKKHVNPVQALSEFKAMDSI |  |
| 27.8 | 4.8 | 0.69 | 0.0107 | 24900 | 2210 | 75 |  |  |  | αEcat-ABD L785A (domain or fragment, source: E. coli BL21-CodonPlus, purified (glutathione-sepharose, thrombin cleavage, Superdex 75); not shown: GST, N-terminal, cleaved) SRTSVQTEDDQLIAGQSARAIMAQLPQEQKAKIAEQVASFQEEKSKLDAEVSKWDDSGNDIIVLAKQMCMIMMEMTDFTRGKGPLKNTSDVISAAKKIAEAGSRMDKLGRTIADHCPDSACKQDLLAYLQRIAAYCHQLNICSKVKAEVQNLGGELVVSGVDSAMSLIQAAKNLMNAVVQTVKASYVASTKYQKSQGMASLNLPAVSWKMKAPEKKPLVKREKQDETQTKIKRASQKKHVNPVQALSEFKAMDSI |  |
| 3.7 | 1.8 | 0.773 | 0.0125 | 211000 | 6910 | 47 |  |  |  | αEcat-ABD V796A (domain or fragment, source: E. coli BL21-CodonPlus, purified (glutathione-sepharose, thrombin cleavage, Superdex 75); not shown: GST, N-terminal, cleaved) SRTSVQTEDDQLIAGQSARAIMAQLPQEQKAKIAEQVASFQEEKSKLDAEVSKWDDSGNDIIVLAKQMCMIMMEMTDFTRGKGPLKNTSDVISAAKKIAEAGSRMDKLGRTIADHCPDSACKQDLLAYLQRIALYCHQLNICSKAKAEVQNLGGELVVSGVDSAMSLIQAAKNLMNAVVQTVKASYVASTKYQKSQGMASLNLPAVSWKMKAPEKKPLVKREKQDETQTKIKRASQKKHVNPVQALSEFKAMDSI |  |
| 2.6 | 0.7 | 0.568 | 0.0135 | 221000 | 20100 |  |  |  |  | αEcat-ABD V714A (domain or fragment, source: E. coli BL21-CodonPlus, purified (glutathione-sepharose, thrombin cleavage, Superdex 75); not shown: GST, N-terminal, cleaved) SRTSVQTEDDQLIAGQSARAIMAQLPQEQKAKIAEQVASFQEEKSKLDAEVSKWDDSGNDIIALAKQMCMIMMEMTDFTRGKGPLKNTSDVISAAKKIAEAGSRMDKLGRTIADHCPDSACKQDLLAYLQRIALYCHQLNICSKVKAEVQNLGGELVVSGVDSAMSLIQAAKNLMNAVVQTVKASYVASTKYQKSQGMASLNLPAVSWKMKAPEKKPLVKREKQDETQTKIKRASQKKHVNPVQALSEFKAMDSI |  |
|  |  |  |  |  |  |  | 580 | 0.264 | 455000 | αE-catenin actin-binding domain with the helix-1 mutation (αEcat-ABD-H1; RAIM670-673GSGS) (domain or fragment, source: E. coli BL21-CodonPlus, purified (glutathione-sepharose, thrombin cleavage, Superdex 75); not shown: GST, N-terminal, cleaved) SRTSVQTEDDQLIAGQSAGSGSAQLPQEQKAKIAEQVASFQEEKSKLDAEVSKWDDSGNDIIVLAKQMCMIMMEMTDFTRGKGPLKNTSDVISAAKKIAEAGSRMDKLGRTIADHCPDSACKQDLLAYLQRIALYCHQLNICSKVKAEVQNLGGELVVSGVDSAMSLIQAAKNLMNAVVQTVKASYVASTKYQKSQGMASLNLPAVSWKMKAPEKKPLVKREKQDETQTKIKRASQKKHVNPVQALSEFKAMDSI |  |
| 4 | 0.6 | 0.945 | 0.00881 | 234000 | 14500 | 36 |  |  |  | αEcat-ABD I792A (domain or fragment, source: E. coli BL21-CodonPlus, purified (glutathione-sepharose, thrombin cleavage, Superdex 75); not shown: GST, N-terminal, cleaved) SRTSVQTEDDQLIAGQSARAIMAQLPQEQKAKIAEQVASFQEEKSKLDAEVSKWDDSGNDIIVLAKQMCMIMMEMTDFTRGKGPLKNTSDVISAAKKIAEAGSRMDKLGRTIADHCPDSACKQDLLAYLQRIALYCHQLNACSKVKAEVQNLGGELVVSGVDSAMSLIQAAKNLMNAVVQTVKASYVASTKYQKSQGMASLNLPAVSWKMKAPEKKPLVKREKQDETQTKIKRASQKKHVNPVQALSEFKAMDSI |  |
|  |  |  |  |  |  |  |  |  |  | αN-catenin actin-binding domain with the helix-1 mutation (αNcat-ABD-H1) (domain or fragment, mouse, UniProt Q61301-2 651-905, looked up, The substitution is printed in αN-catenin's own numbers; PDB 4K1O is the wild-type parent; 6DUW (form A) and 6DUY (form B) are this construct; also called αN-catenin ABD-H1; αN-H1; source: E. coli BL21-CodonPlus, purified (glutathione-sepharose, thrombin cleavage, Superdex 75); 15N-labelled in M9 minimal media for NMR; not shown: GST, N-terminal, cleaved) SRTSVQTEDDQLIAGQSAGSGSAQLPQEEKAKIAEQVEIFHQEKSKLDAEVAKWDDSGNDIIVLAKQMCMIMMEMTDFTRGKGPLKNTSDVINAAKKIAEAGSRMDKLARAVADQCPDSACKQDLLAYLQRIALYCHQLNICSKVKAEVQNLGGELIVSGLDSATSLIQAAKNLMNAVVLTVKASYVASTKYQKVYGTAAVNSPVVSWKMKAPEKKPLVKREKPEEFQTRVRRGSQKKHISPVQALSEFKAMDSF | binds |

Reference: PMC6269467 (Nature Communications, 2018)
